The record followed here is publication doi:10.1101/511345 (bioRxiv, 2019).

Broadly, the stoichiometry N is a count of units in the complex or per binding partner.

The series “cryo-EM structure” concerns the molecule itself. Nature of the series: cryo-EM structure.
The series “crystal structure” deals with the molecule itself. Nature of the series: crystal structure.

B1: Quasibacillus thermotolerans (Qs) IMEF encapsulin capsid protein, assembled T = 4 shell (natural protein)
chain: MNKSQLYPDSPLTDQDFNQLDQTVIEAARRQLVGRRFIELYGPLGRGMQSVFNDIFMESHEAKMDFQGSFDTEVESSRRVNYTIPMLYKDFVLYWRDLEQSKALDIPIDFSVAANAARDVAFLEDQMIFHGSKEFDIPGLMNVKGRLTHLIGNWYESGNAFQDIVEARNKLLEMNHNGPYALVLSPELYSLLHRVHKDTNVLEIEHVRELITAGVFQSPVLKGKSGVIVNTGRNNLDLAISEDFETAYLGEEGMNHPFRVYETVVLRIKRPAAICTLIDPEE
Take B1: the “stoichiometry N” value in “cryo-EM structure” amounted to 240.

B2: Qs IMEF cargo protein, purified alone and crystallised (natural protein)
chain: MKEELDAFHQIFTTTKEAIERFMAMLTPVIENAEDDHERLYYHHIYEEEEQRLSRLDVLIPLIEKFQDETDEGLFSPSNNAFNRLLQELNLEKFGLHNFIEHVDLALFSFTDEERQTLLKELRKDAYEGYQYVKEKLAEINARFDHDYADPHAHHDEHRDHLADMPSAGSSHEEVQPVAHKKKGFTVGSLIQ
On to B2, for which the “stoichiometry N” value in “crystal structure” stood at 2.
